For one series, the system named is refolded SBD641. The experiment in a line: Fluorescence titration of dansyl-NR peptide binding, refolded protein. More on the design: species or system human. As to conditions: refolded vs native SBD641, fluorescence titration. The protocol: The interaction between the different Hsp70 variants and the NR peptide was studied in 50 mM Tris buffer at pH 7.4, with 150 mM KCl, and 5 mM MgCl2 using fluorescence spectroscopy by titrating different concentrations of chaperone into a solution containing 2 µM dansyl-NR peptide (N-terminally labeled; Genemed Synthesis Inc., San Antonio, TX, USA) after incubating the mixtures for 1 h at 25°C. The concentration of dansyl-NR peptide was calculated using an extinction coefficient at 327 nm of 4300 M^-1.cm^-1 [39]. The fluorescence emission spectrum of each sample was recorded from 400 to 630 nm after excitation at 330 nm, and the data reported correspond to the average intensity at the maximum emission wavelength of two different samples for which ten spectra were recorded. The increase in fluorescence signal was plotted as a function of chaperone concentration (Figure S2), and analyzed assuming single-site binding using the following equation:
ΔF=ΔFmaxΘL=ΔFmax/2LT[(PT+LT+Kd)−(PT+LT+Kd)^2−4PTLT] (1)
where ΘL is the fraction of bound ligand, ΔF is the increase in fluorescence intensity observed at a given concentration of Hsp70 variant, ΔF max is the increase in fluorescence at saturation, L T and P T are the total ligand and protein concentration respectively, and K d is the apparent dissociation constant of the complex. […]

The nature of series [1]: SEC/DLS of oligomeric species. Conditions: SEC, 20 µM SBD641. In kind it is physicochemical, human. The protocol:
Analytical SEC was performed at 4 °C using a Superdex 75 10/300 GL column (GE Healthcare LifeSciences, Little Chalfont, U.K.), which had previously been calibrated using a mixture of standard proteins (Gel Filtration LMW Calibration Kit; GE Healthcare LifeSciences, Little Chalfont, U.K.). Typically, samples of the various constructs contained 70 µM of protein in 50 mM Tris buffer at pH 7.4, with 150 mM KCl, 5 mM MgCl2 and were incubated for 15 min (unless otherwise specified) at room temperature before being loaded onto the column for analysis. To evaluate the reversibility of the oligomerization process, the different elution peaks obtained for each protein variant were subsequently analyzed after concentrating the different fractions using AmiconUltra-0.5, Ultracel-3 Membrane, 3 kDa (Millipore, Bedford, MA, USA). […]
Dynamic light scattering. Representative size distributions of SBD641 at different protein concentrations in Tris 50 mM, pH 7.4, 150 mM KCl, 5 mM MgCl2 were recorded at 25 °C on the Zetasizer Nano ZS instrument (Malvern Instruments Ltd.) at 633 nm after 1 h of incubation at room temperature. […] Some samples were analyzed after 1 h and 4 h incubation at room temperature and the same intensity size distributions were obtained. The samples were centrifuged for 15 min at 13200 rpm to remove dust particles and the scattered light was detected at an angle of 173°. […]

Series [2] can be described thus: Analytical SEC relative populations of oligomeric forms. The format is physicochemical, human. Conditions: for Dimer population / Monomer population / Total oligomer population: Superdex 75, 4 °C, 50 mM Tris pH 7.4, 150 mM KCl. As for the experimental part:
Analytical SEC was performed at 4 °C using a Superdex 75 10/300 GL column (GE Healthcare LifeSciences, Little Chalfont, U.K.), which had previously been calibrated using a mixture of standard proteins (Gel Filtration LMW Calibration Kit; GE Healthcare LifeSciences, Little Chalfont, U.K.). Typically, samples of the various constructs contained 70 µM of protein in 50 mM Tris buffer at pH 7.4, with 150 mM KCl, 5 mM MgCl2 and were incubated for 15 min (unless otherwise specified) at room temperature before being loaded onto the column for analysis. To evaluate the reversibility of the oligomerization process, the different elution peaks obtained for each protein variant were subsequently analyzed after concentrating the different fractions using AmiconUltra-0.5, Ultracel-3 Membrane, 3 kDa (Millipore, Bedford, MA, USA). A similar analysis was also performed at 6 µM concentration for all the protein variants to allow for a direct comparison between the results obtained by SEC and MS experiments.
The influence of substrate binding on the oligomerization properties of all the variants was examined by using the well-characterized Hsp70 substrate, the NR peptide (NRLLLTG, Genemed Synthesis Inc., San Antonio, TX, USA). A 14-fold excess of the peptide was added in each case to a fresh protein sample, incubated for 1 h at room temperature, unless otherwise specified, and then loaded onto the Superdex 75 10/300 GL column for analysis. The relative quantities of the different protein species were estimated by analysing the chromatographic profile using a Gaussian function for each elution peak (OriginPro 8, Originlab, Northampton, MA, USA) and measuring the relative area under each peak.

Series [3] in a line: Secondary structure content from far-UV CD. The format is physicochemical, human. Conditions: K2D software; 20 µM protein, 7 mM Tris pH 7.4, 170 mM KCl, 5 mM MgCl2; 25 °C. The protocol: Far-UV CD spectra for all protein variants were recorded using a Jasco J-810 spectropolarimeter equipped with a Peltier holder, using a 0.1 cm path length cuvette. Typically, samples contained 20 µM protein in 7 mM Tris buffer at pH 7.4, containing 170 mM KCl and 5 mM MgCl2. The far-UV CD spectra of all the variants in their native, thermally denatured and refolded states were recorded from 198 to 250 nm, and the spectrum of the buffer was systematically subtracted from the spectra of all protein samples. The secondary structure content was estimated from the far-UV CD spectrum for each protein variant using K2D software.

[4] abbreviates: 70 µM protein, 5 mM MgCl2, 15 min at room temperature, estimated error 3.5% (SD of 3-4 independent experiments).
Where [5] appears, read: 6-15 µM protein, 5 mM MgCl2, estimated error 3.5% (SD of 3-4 independent experiments).

“And” between values parts separate entries of the source, which are not always exact repeats. Identical values can stand only once. A value given as a limit tells only on which side of the number the result lay.

Regarding “SBD641: truncated human Hsp70 (384-641), full-length SBD with interdomain linker”, the “Affinity of refolded SBD641 for substrate” value with refolded SBD641 is recorded as “same affinity as the native protein”. Further, in series [1], the “Oligomer fraction, no NR peptide” value was “ca. 0.7”. Also, in series [2] (setting [4]), the Dimer population is 55%, the Monomer population is 23% and the Total oligomer population was 77%. In addition, in series [2] (setting [5]), the Dimer population is listed as 44%; the Monomer population is reported as 37%; the Total oligomer population was > 50% and 63%. In addition, in series [2] (native SBD641, comparison with refolded), the “Monomeric fraction, native protein” value is 37%. In series [2] (refolded after thermal denaturation), the “Monomeric fraction, refolded protein” value amounted to 71%. Moreover, in series [3], the “Random-coil content estimated from far-UV CD” value is listed as 49%, the “α-helix content estimated from far-UV CD” value is listed as 33% and the “β-sheet content estimated from far-UV CD” value is on record as 18%.

The values above are taken from paper PMC3696110, “Hsp70 Oligomerization Is Mediated by an Interaction between the Interdomain Linker and the Substrate-Binding Domain” (PLoS ONE, 2013).
